Data: article PMC4605301, “hSSB1 (NABP2/ OBFC2B) is required for the repair of 8-oxo-guanine by the hOGG1-mediated base excision repair pathway” (Nucleic Acids Research, 2015)

Legend:
GST-hOGG1 wild type = GST-hOGG1 wild type (human, UniProt O15527 1-345); assay: cell-based or functional assay
hOGG1 F319A = target: T1, hOGG1 F319A (human, UniProt O15527 1-345, F319A); assay: pull-down; biotinylated dsDNA with an 8oxoG lesion on Dynabeads M-280 Streptavidin; 2 μg each of hSSB1 and hOGG1 F319A pre-incubated in buffer K with 75 mM KCl at 4°C, then 2 h with beads at 4°C, wash with 100 mM KCl; SDS-PAGE, Coomassie blue; conditions: both partners purified
T1 construct: human 8-oxoguanine glycosylase 1 (hOGG1) with F319A, from the pGEX-hOGG1 vector; Mutant defective for 8-oxoG recognition; also called hOGG1 mutant (F319A)
T1 sequence (O15527 whole entry F319A): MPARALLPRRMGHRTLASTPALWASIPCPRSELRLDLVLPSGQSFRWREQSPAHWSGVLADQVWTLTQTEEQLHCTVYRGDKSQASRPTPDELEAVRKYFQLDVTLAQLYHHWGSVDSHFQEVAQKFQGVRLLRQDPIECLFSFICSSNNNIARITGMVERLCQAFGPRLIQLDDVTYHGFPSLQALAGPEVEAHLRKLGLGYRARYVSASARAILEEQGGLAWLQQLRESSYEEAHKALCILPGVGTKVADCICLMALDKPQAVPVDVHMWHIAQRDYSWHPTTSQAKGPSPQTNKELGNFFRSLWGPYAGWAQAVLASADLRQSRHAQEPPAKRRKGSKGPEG

Sequence of GST-hOGG1 wild type (O15527 whole entry): as the sequence (O15527 whole entry F319A) above, with A319F counted along it

B1: recombinant hSSB1 full length, N-terminal (His)6-tag (natural protein, human, UniProt Q9BQ15 1-211, looked up)
chain: MTTETFVKDIKPGLKNLNLIFIVLETGRVTKTKDGHEVRTCKVADKTGSINISVWDDVGNLIQPGDIIRLTKGYASVFKGCLTLYTGRGGDLQKIGEFCMVYSEVPNFSEPNPEYSTQQAPNKAVQNDSNPSASQPTTGPSAASPASENQNGNGLSAPPGPGGGPHPPHTPSHPPSTRITRSQPNHTPAGPPGPSSNPVSNGKETRRSSKR
notes: also called hSSB1 Full length (FL); purified recombinant hSSB1; source: E. coli T7 shuffle strain, purified (Superdex 200)
In the case of B1, the “8-oxoG incision activity of 20 nM recombinant hOGG1 on a 22 bp dsDNA with 8-oxoG opposite cytosine, with increasing concentrations of hSSB1 (37°C, 30 min)” value (GST-hOGG1 wild type) is reported as 12 fold and the binding result (hOGG1 F319A) is reported as “binds”.
